Results as given in patent publication US20220175916A1, “METHODS AND COMPOSITIONS FOR TREATING CHRONIC EFFECTS OF RADIATION AND CHEMICAL EXPOSURE” (priority 2018, published 2022).

Experiments:
[1] = system: human histiocytic lymphoma U937 cell line; assay: Senescence-associated β-galactosidase assay by fluorescent microscope imaging; type: cell-based
Description: Cells from the human histiocytic lymphoma U937 cell line were treated with doxorubicin, a chemotherapeutic agent, to induce senescence. Cells were treated with 0 μM, 0.01 μM, 0.1 μM or 1 μM doxorubicin for 3 days, or were treated with 0 μM, 0.1 μM or 1 μM doxorubicin for 6 days. Senescence was measured with a senescence-associated β-galactosidase assay by fluorescent microscope imaging.

[2] = system: murine embryonic fibroblasts, murine dermal fibroblasts and human dermal fibroblasts; conditions: fibroblasts treated in vitro; cited from earlier work
[3] = system: transgenic mouse model p16-3MR; conditions: cited from earlier work; for Induction of senescence in vivo: keratinocytes, endothelial cells, fibroblasts and smooth muscle cells; for p16INK4a expression in the skin: mice administered the agent
[4] = system: transgenic mouse model p16-3MR; conditions: cited from earlier work
[5] = system: transgenic mouse model p16-3MR; conditions: cited from earlier work; for Effect of elimination of senescent cells on running activity and strength: after doxorubicin or paclitaxel
[6] = system: breast cancer cells (MMTV-PyMT); conditions: cited from earlier work
[7] = target: carboxymethyl lysine conjugated to keyhole limpet hemocyanin (CML-KLH); assay: direct ELISA, CML-KLH coat 1 ug/mL, antibody at 50 ug/mL
[8] = target: carboxymethyl lysine conjugated to keyhole limpet hemocyanin (CML-KLH); assay: direct ELISA, CML-KLH coat 1 ug/mL, antibody at 0.07 ug/mL
[9] = target: carboxymethyl lysine conjugated to keyhole limpet hemocyanin (CML-KLH); assay: direct ELISA, CML-KLH coat 1 ug/mL, antibody at 0.21 ug/mL
[10] = target: carboxymethyl lysine conjugated to keyhole limpet hemocyanin (CML-KLH); assay: direct ELISA, CML-KLH coat 1 ug/mL, antibody at 0.62 ug/mL
[11] = target: carboxymethyl lysine conjugated to keyhole limpet hemocyanin (CML-KLH); assay: direct ELISA, CML-KLH coat 1 ug/mL, antibody at 1.85 ug/mL
[12] = target: carboxymethyl lysine conjugated to keyhole limpet hemocyanin (CML-KLH); assay: direct ELISA, CML-KLH coat 1 ug/mL, antibody at 5.56 ug/mL
[13] = target: carboxymethyl lysine conjugated to keyhole limpet hemocyanin (CML-KLH); assay: direct ELISA, CML-KLH coat 1 ug/mL, antibody at 16.67 ug/mL
[14] = target: carboxymethyl lysine conjugated to keyhole limpet hemocyanin (CML-KLH); assay: direct ELISA, CML-KLH coat 1 ug/mL, antibody at 0 ug/mL (buffer control, background)
CML-KLH = assay: Direct binding ELISA, CML-KLH coat; conditions: for OD450 absorbance: CML-KLH Coat
Description: (§1) The binding of the murine (parental) and chimeric anti-AGE antibodies described in Example 3 was investigated by a direct binding ELISA. An anti-carboxymethyl lysine (CML) antibody (R&D Systems, MAB3247) was used as a control. CML was conjugated to KLH (CML-KLH) and both CML and CML-KLH were coated overnight onto an ELISA plate. HRP-goat anti-mouse Fc was used to detect the control and murine (parental) anti-AGE antibodies. HRP-goat anti-human Fc was used to detect the chimeric anti-AGE antibody.
(§2) The antigens were diluted to 1 μg/mL in 1× phosphate buffer at pH 6.5. A 96-well microtiter ELISA plate was coated with 100 μL/well of the diluted antigen and let sit at 4° C. overnight. The plate was blocked with 1×PBS, 2.5% BSA and allowed to sit for 1-2 hours the next morning at room temperature. The antibody samples were prepared in serial dilutions with 1×PBS, 1% BSA with the starting concentration of 50 μg/mL. Secondary antibodies were diluted 1:5,000. 100 μL of the antibody dilutions was applied to each well. The plate was incubated at room temperature for 0.5-1 hour on a microplate shaker. The plate was washed 3 times with 1×PBS. 100 μL/well diluted HRP-conjugated goat anti-human Fc secondary antibody was applied to the wells. The plate was incubated for 1 hour on a microplate shaker. The plate was then washed 3 times with 1×PBS. 100 μL HRP substrate TMB was added to each well to develop the plate. After 3-5 minutes elapsed, the reaction was terminated by adding 100 μL of 1N HCl. A second direct binding ELISA was performed with only CML coating. The absorbance at OD450 was read using a microplate reader.
(§3) The OD450 absorbance raw data for the CML and CML-KLH ELISA is shown in the plate map below. 48 of the 96 wells in the well plate were used. Blank wells in the plate map indicate unused wells.

[15] = Direct binding ELISA, CML coat
Description: as §1, §2, §3
The OD450 absorbance raw data for the CML-only ELISA is shown in the plate map below. 24 of the 96 wells in the well plate were used. Blank wells in the plate map indicate unused wells.

COc1cccc2c1C(=O)c1c(O)c3c(c(O)c1C2=O)C[C@@](O)(C(=O)CO)C[C@@H]3O[C@H]1C[C@H](N)[C@H](O)[C@H](C)O1 [doxorubicin]
Cells that fluoresce (senescence-associated β-galactosidase) ([1]; 0.01 μM for 3 days): about 85%
Cells that fluoresce (senescence-associated β-galactosidase) ([1]; 0.1 μM for 3 days): about 65%
Cells that fluoresce (senescence-associated β-galactosidase) ([1]; 0.1 μM for 6 days): about 85%
Cell death ([1]; 1 μM): significant cell death
Cells that fluoresce (senescence-associated β-galactosidase) ([1]; 1 μM for 3 days): about 60%
Cells that fluoresce (senescence-associated β-galactosidase) ([1]; 1 μM for 6 days): about 85%
Concentration of peak senescence induction ([1]; treatment for 3-6 days): 0.1 µM
Induction of cellular senescence (SA-β-gal, DNA synthesis, p16INK4a mRNA, SASP, p21, LaminB1) [2]: symptoms of cellular senescence
Induction of senescence in vivo [3]: induced senescence in various cell types
Effect on SASP factor genes, HPC function and cardiac function ([4]; genetically engineered mice): increased expression of SASP factor genes associated with inflammation, reduction of hematopoietic progenitor cell (HPC) function and reduction in cardiac function
Chemotherapy-induced fatigue and strength ([5]; running activity): chemotherapy-induced fatigue, as measured by running activity, and decline in strength

Cn1nnc2c(C(N)=O)ncn2c1=O [temozolomide]
Induction of senescence in vivo [3]: induced senescence in various cell types
p16INK4a expression in the skin [3]: elevated p^16INK4a expression in the skin

Nc1nc(O)c2ncn(COC(CO)CO)c2n1 [GCV, ganciclovir]
Effect of elimination of senescent cells on inflammatory factors, HPCs and cardiac function ([4]; after doxorubicin): reduced circulating inflammatory factors, promoted the functional recovery of HPCs and prevented cardiac dysfunction
Survival and cancer metastases vs doxorubicin followed by vehicle ([6]; doxorubicin followed by GCV): increased survival and reduced cancer metastases
Tumor growth, metastases and metastatic foci vs vehicle ([6]; surgical removal of palpable tumors prior to treatment): smaller tumor growth, reduced cancer metastases and fewer metastatic foci
Effect of elimination of senescent cells on running activity and strength [5]: nearly reversed the decline in running activity and improved the loss of strength

CC(=O)O[C@H]1C(=O)[C@@]2(C)[C@H]([C@H](OC(=O)c3ccccc3)[C@]3(O)C[C@H](OC(=O)[C@H](O)[C@@H](NC(=O)c4ccccc4)c4ccccc4)C(C)=C1C3(C)C)[C@]1(OC(C)=O)CO[C@@H]1C[C@@H]2O [paclitaxel]
Induction of cellular senescence (SA-β-gal, DNA synthesis, p16INK4a mRNA, SASP, p21, LaminB1) [2]: symptoms of cellular senescence

CC1(C)CCC(c2ccc(Cl)cc2)=C(CN2CCN(c3ccc(C(=O)NS(=O)(=O)c4ccc(N[C@H](CCN5CCOCC5)CSc5ccccc5)c(S(=O)(=O)C(F)(F)F)c4)cc3)CC2)C1 [ABT-263]
Effect of elimination of senescent cells on running activity and strength [5]: nearly reversed the decline in running activity and improved the loss of strength

carboxymethyl lysine MAb (Clone 318003), R&D Systems, catalog no. MAB3247 (antibody)
OD450 [7]: 0.462 OD450
OD450 [8]: 0.086 OD450
OD450 [9]: 0.075 OD450
OD450 [10]: 0.083 OD450
OD450 [11]: 0.092 OD450
OD450 [12]: 0.165 OD450
OD450 [13]: 0.312 OD450
OD450 [14]: 0.09 OD450

N.N.[Cl][Pt][Cl] [cisplatin]
Induction of senescence in vivo [3]: induced senescence in various cell types
p16INK4a expression in the skin [3]: elevated p^16INK4a expression in the skin

B1: Parental Anti-AGE: murine anti-AGE IgG2b antibody, heavy chain DNA SEQ ID NO: 12, kappa light chain DNA SEQ ID NO: 14 (antibody)
heavy: MDPKGSLSWRILLFLSLAFELSYGQVQLLQPGAELVKPGASVKLACKASGYLFTTYWMHWLKQRPGQGLEWIGEISPTNGRAYYNARFKSEATLTVDKSSNTAYMQLSSLTSEASAVYYCARAYGNYEFAYWGQGTLVTVSVAKTTPPSVYPLAPGCGDTTGSSVTLGCLVKGYFPESVTVTWNSGSLSSSVHTFPALLQSGLYTMSSSVTVPSSTWPSQTVTCSVAHPASSTTVDKKLEPSGPISTINPCPPCKECHKCPAPNLEGGPSVFIFPPNIKDVLMISLTPKVTCVVVDVSEDDPDVQISWFVNNVEVHTAQTQTHREDYNSTIRVVSTLPIQHQDWMSGKEFKCKVNNKDLPSPIERTISKIKGLVRAPQVYILPPPAEQLSRKDVSLTCLVVGFNPGDISVEWTSNGHTEENYKDTAPVLDSDGSYFIYSKLNMKTSKWEKTDSFSCNVRHEGLKNYYLKKTISRSPG
light: METDTLLLWVLLLWVPGSTGDVVMTQTPLSLPVSLGDQASISCRSRQSLVNSNGNTFLQWYLQKPGQSPKLLIYKVSLRFSGVPDRFSGSGSGTDFTLKISRVEAEDLGLYFCSQSTHVPPTFGGGTKLEIKRADAAPTVSIFPPSSEQLTSGGASVVCFLNNFYPKDINVKWKIDGSERQNGVLNSWTDQDSKDSTYSMSSTLTLTKDEYERHNSYTCEATHKTSTSPIVKSFNRNEC
modifications: Murine anti-AGE IgG2b heavy chain; Murine anti-AGE Kappa light chain
OD450 absorbance (CML-KLH; antibody 0.07 μg/mL): 0.086
OD450 absorbance (CML-KLH; antibody 0.21 μg/mL): 0.066
OD450 absorbance (CML-KLH; antibody 0.62 μg/mL): 0.072
OD450 absorbance (CML-KLH; antibody 1.85 μg/mL): 0.063
OD450 absorbance (CML-KLH; antibody 5.56 μg/mL): 0.063
OD450 absorbance (CML-KLH; antibody 16.67 μg/mL): 0.067
OD450 absorbance (CML-KLH; antibody 50 μg/mL): 0.092
Binding to CML-KLH (in words) (CML-KLH; direct binding ELISA): very weak to no binding
OD450 absorbance ([15]; CML Coat (CML and CML-KLH ELISA), antibody 0.07 μg/mL): 0.096
OD450 absorbance ([15]; CML Coat (CML and CML-KLH ELISA), antibody 0.21 μg/mL): 0.096
OD450 absorbance ([15]; CML Coat (CML and CML-KLH ELISA), antibody 0.62 μg/mL): 0.085
OD450 absorbance ([15]; CML Coat (CML and CML-KLH ELISA), antibody 1.85 μg/mL): 0.099
OD450 absorbance ([15]; CML Coat (CML and CML-KLH ELISA), antibody 5.56 μg/mL): 0.115
OD450 absorbance ([15]; CML Coat (CML and CML-KLH ELISA), antibody 16.67 μg/mL): 0.13
OD450 absorbance ([15]; CML Coat (CML and CML-KLH ELISA), antibody 50 μg/mL): 0.142
Binding to CML (in words) ([15]; direct binding ELISA): very weak to no binding
OD450 absorbance ([15]; second, CML-only ELISA, antibody 0.068587 μg/mL): 0.055
OD450 absorbance ([15]; second, CML-only ELISA, antibody 0.205761 μg/mL): 0.056
OD450 absorbance ([15]; second, CML-only ELISA, antibody 0.617284 μg/mL): 0.103
OD450 absorbance ([15]; second, CML-only ELISA, antibody 1.851852 μg/mL): 0.078
OD450 absorbance ([15]; second, CML-only ELISA, antibody 5.555556 μg/mL): 0.166
OD450 absorbance ([15]; second, CML-only ELISA, antibody 16.66667 μg/mL): 0.226
OD450 absorbance ([15]; second, CML-only ELISA, antibody 50 μg/mL): 0.165
